Measured values as given in US9260500B2, “Peptide and use thereof” (Takeda Pharmaceutical Company Limited, priority 2009, dated 2016).
Starred links: 1 amine or outer side, 2 acyl side, 3 side chain; linkers in the order of their positions; H or OH if unused. Non-standard residues stand in square brackets, D forms with d. Ser(Me) = methylated serine, COC[C@H](N[*:1])C(=O)[*:2]; Lys(Me2) = CN(C)CCCC[C@H](N)C(=O)O; Hyp = O=C(O)[C@@H]1C[C@@H](O)CN1; 4Pal = N[C@@H](Cc1ccncc1)C(=O)O; Cha = N[C@@H](CC1CCCCC1)C(=O)O; NMeS = CN[C@@H](CO)C(=O)O; Iva = CC[C@](C)(N)C(=O)O; Abu = CC[C@H](N)C(=O)O; Nleu = CC(C)CNCC(=O)O; Aib = CC(C)(N)C(=O)O

How the values were obtained:
[1] = target: T1, human Y2 receptor (Homo sapiens, UniProt P49146); experiment: Receptor Binding Assay (RBA) for Human Y2, [125I]-PYY displacement on hY2R/CHO membrane fraction; settings: IC50 of test compound/IC50 of PYY(3-36) (PYY(3-36) taken as 1)
T1 construct: expressed in transfected cells; membrane fraction
T1 sequence (P49146 1-381): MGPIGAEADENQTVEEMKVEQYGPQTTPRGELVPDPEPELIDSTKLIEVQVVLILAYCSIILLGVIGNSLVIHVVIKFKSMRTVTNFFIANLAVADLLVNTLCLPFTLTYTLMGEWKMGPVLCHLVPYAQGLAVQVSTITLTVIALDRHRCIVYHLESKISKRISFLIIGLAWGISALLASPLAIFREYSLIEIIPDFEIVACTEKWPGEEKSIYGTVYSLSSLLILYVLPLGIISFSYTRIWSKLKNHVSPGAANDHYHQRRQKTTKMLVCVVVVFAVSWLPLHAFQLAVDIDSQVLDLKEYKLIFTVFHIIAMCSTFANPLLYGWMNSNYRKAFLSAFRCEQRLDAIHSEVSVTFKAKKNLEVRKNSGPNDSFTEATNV
Outline: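 Read-out is [125I]-PYY displacement from membranes of CHO/dhfr− cells stably transfected with human Y2R. Membranes were obtained by disrupting cells in a buffer of 10 mM NaHCO3, 5 mM EDTA and protease inhibitors.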

[2] = target: T1, human Y2 receptor; experiment: Human Y2 Receptor G Protein Binding Assay (GBA), [35S]GTPγS; type: biochemical; settings: EC50 of test compound/EC50 of PYY(3-36) (PYY3-36 taken as 1), hY2R/CHO membrane fraction
Outline: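 Agonism measured as [35S]GTPγS binding, read by GF/C filtration and scintillation counting after 120 min at room temperature, using human Y2 membranes at 1 μg protein/mL in pH 7.4 Tris/MgCl2/NaCl/GDP buffer. Compound serially diluted 100 μM–1 nM; EC50 normalized to PYY(3-36) (ratio = compound/PYY).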

Row | Substance | RBA IC50 Ratio [1] | GBA EC50 Ratio [2]
1 | Ac-[Hyp23, D-Pro24, Cha27,28,36, Aib31]-PYY(23-36) (Ac-[Hyp][dP]RH[Cha][Cha]NL[Aib]TRQR[Cha]-NH2; SMILES CC(=O)N1C[C@H](O)C[C@H]1C(=O)N1CCC[C@@H]1C(=O)N[C@@H](CCCNC(=N)N)C(=O)N[C@@H](Cc1c[nH]cn1)C(=O)N[C@@H](CC1CCCCC1)C(=O)N[C@@H](CC1CCCCC1)C(=O)N[C@@H](CC(N)=O)C(=O)N[C@@H](CC(C)C)C(=O)NC(C)(C)C(=O)N[C@H](C(=O)N[C@@H](CCCNC(=N)N)C(=O)N[C@@H](CCC(N)=O)C(=O)N[C@@H](CCCNC(=N)N)C(=O)N[C@@H](CC1CCCCC1)C(N)=O)[C@@H](C)O) [compound No. 126] | 7.3 | 5.0
2 | Ac-[Iva23, D-Pro24, Cha27,28,36, Aib31]-PYY(23-36) (Ac-[Iva][dP]RH[Cha][Cha]NL[Aib]TRQR[Cha]-NH2; SMILES CC[C@](C)(NC(C)=O)C(=O)N1CCC[C@@H]1C(=O)N[C@@H](CCCNC(=N)N)C(=O)N[C@@H](Cc1c[nH]cn1)C(=O)N[C@@H](CC1CCCCC1)C(=O)N[C@@H](CC1CCCCC1)C(=O)N[C@@H](CC(N)=O)C(=O)N[C@@H](CC(C)C)C(=O)NC(C)(C)C(=O)N[C@H](C(=O)N[C@@H](CCCNC(=N)N)C(=O)N[C@@H](CCC(N)=O)C(=O)N[C@@H](CCCNC(=N)N)C(=O)N[C@@H](CC1CCCCC1)C(N)=O)[C@@H](C)O) [compound No. 178] | 13 | 17
3 | Ac-[Leu22, D-Pro24, Pya(4)26, Cha27,36, Aib28,31, Lys30]-PYY(22-36) (Ac-LS[dP]R[4Pal][Cha][Aib]NK[Aib]TRQR[Cha]-NH2; SMILES CC(=O)N[C@@H](CC(C)C)C(=O)N[C@@H](CO)C(=O)N1CCC[C@@H]1C(=O)N[C@@H](CCCNC(=N)N)C(=O)N[C@@H](Cc1ccncc1)C(=O)N[C@@H](CC1CCCCC1)C(=O)NC(C)(C)C(=O)N[C@@H](CC(N)=O)C(=O)N[C@@H](CCCCN)C(=O)NC(C)(C)C(=O)N[C@H](C(=O)N[C@@H](CCCNC(=N)N)C(=O)N[C@@H](CCC(N)=O)C(=O)N[C@@H](CCCNC(=N)N)C(=O)N[C@@H](CC1CCCCC1)C(N)=O)[C@@H](C)O) [compound No. 274] | 1.2 | 1.0
4 | Ac-[Lys22,30, D-Pro24, Pya(4)26, Cha27,36, Aib28,31]-PYY(22-36) (Ac-KS[dP]R[4Pal][Cha][Aib]NK[Aib]TRQR[Cha]-NH2; SMILES CC(=O)N[C@@H](CCCCN)C(=O)N[C@@H](CO)C(=O)N1CCC[C@@H]1C(=O)N[C@@H](CCCNC(=N)N)C(=O)N[C@@H](Cc1ccncc1)C(=O)N[C@@H](CC1CCCCC1)C(=O)NC(C)(C)C(=O)N[C@@H](CC(N)=O)C(=O)N[C@@H](CCCCN)C(=O)NC(C)(C)C(=O)N[C@H](C(=O)N[C@@H](CCCNC(=N)N)C(=O)N[C@@H](CCC(N)=O)C(=O)N[C@@H](CCCNC(=N)N)C(=O)N[C@@H](CC1CCCCC1)C(N)=O)[C@@H](C)O) [compound No. 272] | 1.1 | 1.0
5 | Ac-[Lys(Me2)23, D-Pro24, Cha27,28,36, Aib31]-PYY(23-36) (Ac-[Lys(Me2)][dP]RH[Cha][Cha]NL[Aib]TRQR[Cha]-NH2; SMILES CC(=O)N[C@@H](CCCCN(C)C)C(=O)N1CCC[C@@H]1C(=O)N[C@@H](CCCNC(=N)N)C(=O)N[C@@H](Cc1c[nH]cn1)C(=O)N[C@@H](CC1CCCCC1)C(=O)N[C@@H](CC1CCCCC1)C(=O)N[C@@H](CC(N)=O)C(=O)N[C@@H](CC(C)C)C(=O)NC(C)(C)C(=O)N[C@H](C(=O)N[C@@H](CCCNC(=N)N)C(=O)N[C@@H](CCC(N)=O)C(=O)N[C@@H](CCCNC(=N)N)C(=O)N[C@@H](CC1CCCCC1)C(N)=O)[C@@H](C)O) [compound No. 160] | 0.92 | 1.3
6 | Ac-[MeSer23, D-Pro24, Cha27,28,36, Aib31]-PYY(22-36) (Ac-A[NMeS][dP]RH[Cha][Cha]NL[Aib]TRQR[Cha]-NH2; SMILES CC(=O)N[C@@H](C)C(=O)N(C)[C@@H](CO)C(=O)N1CCC[C@@H]1C(=O)N[C@@H](CCCNC(=N)N)C(=O)N[C@@H](Cc1c[nH]cn1)C(=O)N[C@@H](CC1CCCCC1)C(=O)N[C@@H](CC1CCCCC1)C(=O)N[C@@H](CC(N)=O)C(=O)N[C@@H](CC(C)C)C(=O)NC(C)(C)C(=O)N[C@H](C(=O)N[C@@H](CCCNC(=N)N)C(=O)N[C@@H](CCC(N)=O)C(=O)N[C@@H](CCCNC(=N)N)C(=O)N[C@@H](CC1CCCCC1)C(N)=O)[C@@H](C)O) [compound No. 129] | 12 | 7.8
7 | Ac-[N(iBu)Gly24, Cha27,28,36, Aib31]-PYY(23-36) (Ac-S[Nleu]RH[Cha][Cha]NL[Aib]TRQR[Cha]-NH2; SMILES CC(=O)N[C@@H](CO)C(=O)N(CC(=O)N[C@@H](CCCNC(=N)N)C(=O)N[C@@H](Cc1c[nH]cn1)C(=O)N[C@@H](CC1CCCCC1)C(=O)N[C@@H](CC1CCCCC1)C(=O)N[C@@H](CC(N)=O)C(=O)N[C@@H](CC(C)C)C(=O)NC(C)(C)C(=O)N[C@H](C(=O)N[C@@H](CCCNC(=N)N)C(=O)N[C@@H](CCC(N)=O)C(=O)N[C@@H](CCCNC(=N)N)C(=O)N[C@@H](CC1CCCCC1)C(N)=O)[C@@H](C)O)CC(C)C) [compound No. 108] | 20 | 8.4
8 | Ac-[Phe22, D-Pro24, Pya(4)26, Cha27,36, Aib28,31, Lys30]-PYY(22-36) (Ac-FS[dP]R[4Pal][Cha][Aib]NK[Aib]TRQR[Cha]-NH2; SMILES CC(=O)N[C@@H](Cc1ccccc1)C(=O)N[C@@H](CO)C(=O)N1CCC[C@@H]1C(=O)N[C@@H](CCCNC(=N)N)C(=O)N[C@@H](Cc1ccncc1)C(=O)N[C@@H](CC1CCCCC1)C(=O)NC(C)(C)C(=O)N[C@@H](CC(N)=O)C(=O)N[C@@H](CCCCN)C(=O)NC(C)(C)C(=O)N[C@H](C(=O)N[C@@H](CCCNC(=N)N)C(=O)N[C@@H](CCC(N)=O)C(=O)N[C@@H](CCCNC(=N)N)C(=O)N[C@@H](CC1CCCCC1)C(N)=O)[C@@H](C)O) [compound No. 275] | 1.2 | 0.89
9 | Ac-[Phe23, D-Pro24, Abu26, Cha27,28,36, Aib31]-PYY(23-36) (Ac-F[dP]R[Abu][Cha][Cha]NL[Aib]TRQR[Cha]-NH2; SMILES CC[C@H](NC(=O)[C@H](CCCNC(=N)N)NC(=O)[C@H]1CCCN1C(=O)[C@H](Cc1ccccc1)NC(C)=O)C(=O)N[C@@H](CC1CCCCC1)C(=O)N[C@@H](CC1CCCCC1)C(=O)N[C@@H](CC(N)=O)C(=O)N[C@@H](CC(C)C)C(=O)NC(C)(C)C(=O)N[C@H](C(=O)N[C@@H](CCCNC(=N)N)C(=O)N[C@@H](CCC(N)=O)C(=O)N[C@@H](CCCNC(=N)N)C(=O)N[C@@H](CC1CCCCC1)C(N)=O)[C@@H](C)O) [compound No. 107] | 12 | 5.9
10 | Ac-[Ser(Me)23, D-Pro24, Abu26, Cha27,28,36, Aib31]-PYY(23-36) (Ac-[Ser(Me)][dP]R[Abu][Cha][Cha]NL[Aib]TRQR[Cha]-NH2; SMILES CC[C@H](NC(=O)[C@H](CCCNC(=N)N)NC(=O)[C@H]1CCCN1C(=O)[C@H](COC)NC(C)=O)C(=O)N[C@@H](CC1CCCCC1)C(=O)N[C@@H](CC1CCCCC1)C(=O)N[C@@H](CC(N)=O)C(=O)N[C@@H](CC(C)C)C(=O)NC(C)(C)C(=O)N[C@H](C(=O)N[C@@H](CCCNC(=N)N)C(=O)N[C@@H](CCC(N)=O)C(=O)N[C@@H](CCCNC(=N)N)C(=O)N[C@@H](CC1CCCCC1)C(N)=O)[C@@H](C)O) [compound No. 106] | 5.2 | 3.8
